Publication doi:10.1101/2022.10.27.514150 (bioRxiv, 2022)

How the values were obtained:
[1] = target: Gluc1-E2F4 (human, UniProt Q16254 1-413); assay: split reporter
[2] = target: T1, Gluc1-ΔNp73α FL (UniProt O15350-8 1-587); assay: split reporter
T1 sequence (looked up): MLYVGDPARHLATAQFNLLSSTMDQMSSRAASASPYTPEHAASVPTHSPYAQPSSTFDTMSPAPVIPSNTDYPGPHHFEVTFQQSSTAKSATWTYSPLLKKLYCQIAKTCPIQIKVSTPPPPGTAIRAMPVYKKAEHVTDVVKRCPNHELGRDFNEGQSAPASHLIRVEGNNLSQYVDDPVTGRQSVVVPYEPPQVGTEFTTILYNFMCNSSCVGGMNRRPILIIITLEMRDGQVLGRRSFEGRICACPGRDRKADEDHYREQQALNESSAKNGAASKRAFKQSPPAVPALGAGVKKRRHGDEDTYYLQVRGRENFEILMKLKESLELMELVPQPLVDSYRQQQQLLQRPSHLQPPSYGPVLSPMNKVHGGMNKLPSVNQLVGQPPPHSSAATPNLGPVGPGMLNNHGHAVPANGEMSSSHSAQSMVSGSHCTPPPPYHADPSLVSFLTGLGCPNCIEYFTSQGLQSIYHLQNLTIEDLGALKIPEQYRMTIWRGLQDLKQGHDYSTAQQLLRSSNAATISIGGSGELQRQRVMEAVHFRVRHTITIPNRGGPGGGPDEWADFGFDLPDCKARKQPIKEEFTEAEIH

[3] = target: T2, Gluc1-TAp73α (UniProt O15350 1-636); assay: split reporter
T2 sequence (looked up): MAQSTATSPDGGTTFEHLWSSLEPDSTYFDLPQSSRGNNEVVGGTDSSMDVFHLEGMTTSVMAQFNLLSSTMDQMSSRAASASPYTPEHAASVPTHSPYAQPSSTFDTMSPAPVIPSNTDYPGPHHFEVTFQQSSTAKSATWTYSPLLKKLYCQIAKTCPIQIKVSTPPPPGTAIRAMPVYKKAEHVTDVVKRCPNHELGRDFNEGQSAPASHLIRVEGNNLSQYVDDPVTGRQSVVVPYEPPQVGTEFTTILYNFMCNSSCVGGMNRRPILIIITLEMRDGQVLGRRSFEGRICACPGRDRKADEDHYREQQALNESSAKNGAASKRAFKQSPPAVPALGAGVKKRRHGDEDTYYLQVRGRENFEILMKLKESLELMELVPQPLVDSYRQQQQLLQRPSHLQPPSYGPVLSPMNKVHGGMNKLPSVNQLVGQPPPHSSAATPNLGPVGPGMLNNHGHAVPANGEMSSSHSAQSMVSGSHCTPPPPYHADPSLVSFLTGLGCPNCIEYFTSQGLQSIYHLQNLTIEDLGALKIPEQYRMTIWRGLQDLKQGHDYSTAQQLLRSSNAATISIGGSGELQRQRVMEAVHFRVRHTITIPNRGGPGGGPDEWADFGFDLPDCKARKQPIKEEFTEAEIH

[4] = target: T3, Gluc1-ΔN(74–348) (UniProt O15350-8 74-348); assay: split reporter
T3 sequence (looked up): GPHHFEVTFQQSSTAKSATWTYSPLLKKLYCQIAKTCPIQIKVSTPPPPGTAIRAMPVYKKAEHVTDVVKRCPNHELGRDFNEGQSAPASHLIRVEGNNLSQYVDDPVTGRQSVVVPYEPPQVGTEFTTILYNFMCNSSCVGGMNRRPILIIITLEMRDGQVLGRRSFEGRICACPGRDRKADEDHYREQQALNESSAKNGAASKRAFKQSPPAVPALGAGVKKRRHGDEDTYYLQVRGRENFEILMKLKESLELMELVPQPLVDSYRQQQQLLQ

[5] = target: T4, minimal E2F4/DP1 heterodimer (E2F4s/DP1s) (human, UniProt Q16254 84-413; Q14186 199-350); assay: pull-down
T4 sequence (looked up) 1: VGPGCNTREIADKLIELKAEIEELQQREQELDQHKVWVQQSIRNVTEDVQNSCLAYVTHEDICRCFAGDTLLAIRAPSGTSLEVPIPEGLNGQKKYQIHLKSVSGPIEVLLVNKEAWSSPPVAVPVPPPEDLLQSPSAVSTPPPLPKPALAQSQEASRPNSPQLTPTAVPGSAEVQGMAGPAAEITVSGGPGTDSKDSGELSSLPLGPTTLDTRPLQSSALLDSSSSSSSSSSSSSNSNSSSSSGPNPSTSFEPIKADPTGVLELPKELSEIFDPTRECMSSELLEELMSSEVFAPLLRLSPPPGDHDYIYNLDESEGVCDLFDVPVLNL
T4 sequence (looked up) 2: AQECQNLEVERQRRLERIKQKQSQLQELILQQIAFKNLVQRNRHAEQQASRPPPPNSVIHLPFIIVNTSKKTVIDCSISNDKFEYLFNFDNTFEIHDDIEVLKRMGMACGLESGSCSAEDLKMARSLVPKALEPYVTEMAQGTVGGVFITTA

B1: Gluc2-DP1 (natural protein, human, UniProt Q14186 1-410, looked up)
chain: MAKDAGLIEANGELKVFIDQNLSPGKGVVSLVAVHPSTVNPLGKQLLPKTFGQSNVNIAQQVVIGTPQRPAASNTLVVGSPHTPSTHFASQNQPSDSSPWSAGKRNRKGEKNGKGLRHFSMKVCEKVQRKGTTSYNEVADELVAEFSAADNHILPNESAYDQKNIRRRVYDALNVLMAMNIISKEKKEIKWIGLPTNSAQECQNLEVERQRRLERIKQKQSQLQELILQQIAFKNLVQRNRHAEQQASRPPPPNSVIHLPFIIVNTSKKTVIDCSISNDKFEYLFNFDNTFEIHDDIEVLKRMGMACGLESGSCSAEDLKMARSLVPKALEPYVTEMAQGTVGGVFITTAGSTSNGTRFSASDLTNGADGMLATSSNGSQYSGSRVETPVSYVGEDDEEDDDFNENDEDD
normalized luminescence ratio (NLR) [1]: ~500

B2: Gluc2-E2F(1–336) (domain or fragment)
chain: not shown
binding relative to ΔNp73α FL/E2F4 FL [2]: 60%

B3: Gluc2-E2F4 FL (natural protein)
chain: not shown
normalized luminescence ratio (NLR) [2]: > 20 | binding response relative to ΔNp73α [3]: ~50% | binding relative to ΔNp73α FL/E2F4 FL [4]: 60%

B4: MBP-ΔN(1-348) (domain or fragment, UniProt O15350-8 1-348, looked up)
chain: MLYVGDPARHLATAQFNLLSSTMDQMSSRAASASPYTPEHAASVPTHSPYAQPSSTFDTMSPAPVIPSNTDYPGPHHFEVTFQQSSTAKSATWTYSPLLKKLYCQIAKTCPIQIKVSTPPPPGTAIRAMPVYKKAEHVTDVVKRCPNHELGRDFNEGQSAPASHLIRVEGNNLSQYVDDPVTGRQSVVVPYEPPQVGTEFTTILYNFMCNSSCVGGMNRRPILIIITLEMRDGQVLGRRSFEGRICACPGRDRKADEDHYREQQALNESSAKNGAASKRAFKQSPPAVPALGAGVKKRRHGDEDTYYLQVRGRENFEILMKLKESLELMELVPQPLVDSYRQQQQLLQ
binding result [5]: binds

B5: Gluc2-E2F(1–90) (domain or fragment)
chain: not shown
binding relative to ΔNp73α FL/E2F4 FL [2]: 20%
